Measurements published in patent publication US20060110789.

Assays:
[1] = molecular target: T1, (5)M3+TE (module 3 of DEBS with the N-terminal linker of module 5, fused to thioesterase), Q03132
T1 chain: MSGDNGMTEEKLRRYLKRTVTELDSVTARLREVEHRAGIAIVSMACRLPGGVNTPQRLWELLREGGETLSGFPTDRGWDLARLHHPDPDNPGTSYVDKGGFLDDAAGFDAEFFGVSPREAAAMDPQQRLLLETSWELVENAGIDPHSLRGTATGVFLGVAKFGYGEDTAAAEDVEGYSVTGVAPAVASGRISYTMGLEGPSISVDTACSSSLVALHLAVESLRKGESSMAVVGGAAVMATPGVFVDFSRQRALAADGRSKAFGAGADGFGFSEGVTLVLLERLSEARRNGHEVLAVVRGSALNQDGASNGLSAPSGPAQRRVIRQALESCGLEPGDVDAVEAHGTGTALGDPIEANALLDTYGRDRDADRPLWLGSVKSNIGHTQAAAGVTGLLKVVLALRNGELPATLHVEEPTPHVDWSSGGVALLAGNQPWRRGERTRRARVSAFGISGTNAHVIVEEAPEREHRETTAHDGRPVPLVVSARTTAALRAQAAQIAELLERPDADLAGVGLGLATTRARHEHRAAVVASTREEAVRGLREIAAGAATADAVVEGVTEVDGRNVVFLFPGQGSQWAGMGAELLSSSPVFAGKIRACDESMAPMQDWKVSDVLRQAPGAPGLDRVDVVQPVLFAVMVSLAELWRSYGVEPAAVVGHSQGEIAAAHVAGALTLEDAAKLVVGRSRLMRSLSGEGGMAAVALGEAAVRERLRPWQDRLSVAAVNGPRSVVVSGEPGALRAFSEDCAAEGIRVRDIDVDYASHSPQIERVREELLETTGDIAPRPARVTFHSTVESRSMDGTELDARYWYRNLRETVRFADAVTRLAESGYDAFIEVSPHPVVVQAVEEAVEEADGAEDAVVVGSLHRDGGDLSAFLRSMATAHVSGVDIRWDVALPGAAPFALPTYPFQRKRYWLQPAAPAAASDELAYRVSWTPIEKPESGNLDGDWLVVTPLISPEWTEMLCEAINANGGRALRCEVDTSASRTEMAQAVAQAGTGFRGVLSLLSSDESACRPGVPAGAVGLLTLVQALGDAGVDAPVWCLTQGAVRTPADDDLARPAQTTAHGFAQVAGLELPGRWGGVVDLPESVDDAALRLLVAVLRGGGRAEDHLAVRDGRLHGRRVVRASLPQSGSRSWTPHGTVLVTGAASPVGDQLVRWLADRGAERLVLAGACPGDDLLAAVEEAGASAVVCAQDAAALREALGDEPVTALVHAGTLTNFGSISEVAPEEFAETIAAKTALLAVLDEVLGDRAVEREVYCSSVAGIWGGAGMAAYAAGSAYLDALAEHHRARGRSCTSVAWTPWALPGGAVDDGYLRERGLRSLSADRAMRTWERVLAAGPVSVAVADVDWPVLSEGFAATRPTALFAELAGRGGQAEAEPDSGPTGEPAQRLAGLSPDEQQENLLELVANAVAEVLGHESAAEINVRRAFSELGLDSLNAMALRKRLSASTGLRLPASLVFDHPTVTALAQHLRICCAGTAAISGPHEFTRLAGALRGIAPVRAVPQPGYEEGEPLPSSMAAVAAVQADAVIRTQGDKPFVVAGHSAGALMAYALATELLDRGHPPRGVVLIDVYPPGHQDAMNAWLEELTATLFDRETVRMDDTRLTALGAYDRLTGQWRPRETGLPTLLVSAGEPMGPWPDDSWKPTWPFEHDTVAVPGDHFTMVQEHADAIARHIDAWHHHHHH

[2] = molecular target: T2, M3+TE (module 3 of DEBS with its own N-terminal linker, fused to thioesterase), Q03132
T2 chain: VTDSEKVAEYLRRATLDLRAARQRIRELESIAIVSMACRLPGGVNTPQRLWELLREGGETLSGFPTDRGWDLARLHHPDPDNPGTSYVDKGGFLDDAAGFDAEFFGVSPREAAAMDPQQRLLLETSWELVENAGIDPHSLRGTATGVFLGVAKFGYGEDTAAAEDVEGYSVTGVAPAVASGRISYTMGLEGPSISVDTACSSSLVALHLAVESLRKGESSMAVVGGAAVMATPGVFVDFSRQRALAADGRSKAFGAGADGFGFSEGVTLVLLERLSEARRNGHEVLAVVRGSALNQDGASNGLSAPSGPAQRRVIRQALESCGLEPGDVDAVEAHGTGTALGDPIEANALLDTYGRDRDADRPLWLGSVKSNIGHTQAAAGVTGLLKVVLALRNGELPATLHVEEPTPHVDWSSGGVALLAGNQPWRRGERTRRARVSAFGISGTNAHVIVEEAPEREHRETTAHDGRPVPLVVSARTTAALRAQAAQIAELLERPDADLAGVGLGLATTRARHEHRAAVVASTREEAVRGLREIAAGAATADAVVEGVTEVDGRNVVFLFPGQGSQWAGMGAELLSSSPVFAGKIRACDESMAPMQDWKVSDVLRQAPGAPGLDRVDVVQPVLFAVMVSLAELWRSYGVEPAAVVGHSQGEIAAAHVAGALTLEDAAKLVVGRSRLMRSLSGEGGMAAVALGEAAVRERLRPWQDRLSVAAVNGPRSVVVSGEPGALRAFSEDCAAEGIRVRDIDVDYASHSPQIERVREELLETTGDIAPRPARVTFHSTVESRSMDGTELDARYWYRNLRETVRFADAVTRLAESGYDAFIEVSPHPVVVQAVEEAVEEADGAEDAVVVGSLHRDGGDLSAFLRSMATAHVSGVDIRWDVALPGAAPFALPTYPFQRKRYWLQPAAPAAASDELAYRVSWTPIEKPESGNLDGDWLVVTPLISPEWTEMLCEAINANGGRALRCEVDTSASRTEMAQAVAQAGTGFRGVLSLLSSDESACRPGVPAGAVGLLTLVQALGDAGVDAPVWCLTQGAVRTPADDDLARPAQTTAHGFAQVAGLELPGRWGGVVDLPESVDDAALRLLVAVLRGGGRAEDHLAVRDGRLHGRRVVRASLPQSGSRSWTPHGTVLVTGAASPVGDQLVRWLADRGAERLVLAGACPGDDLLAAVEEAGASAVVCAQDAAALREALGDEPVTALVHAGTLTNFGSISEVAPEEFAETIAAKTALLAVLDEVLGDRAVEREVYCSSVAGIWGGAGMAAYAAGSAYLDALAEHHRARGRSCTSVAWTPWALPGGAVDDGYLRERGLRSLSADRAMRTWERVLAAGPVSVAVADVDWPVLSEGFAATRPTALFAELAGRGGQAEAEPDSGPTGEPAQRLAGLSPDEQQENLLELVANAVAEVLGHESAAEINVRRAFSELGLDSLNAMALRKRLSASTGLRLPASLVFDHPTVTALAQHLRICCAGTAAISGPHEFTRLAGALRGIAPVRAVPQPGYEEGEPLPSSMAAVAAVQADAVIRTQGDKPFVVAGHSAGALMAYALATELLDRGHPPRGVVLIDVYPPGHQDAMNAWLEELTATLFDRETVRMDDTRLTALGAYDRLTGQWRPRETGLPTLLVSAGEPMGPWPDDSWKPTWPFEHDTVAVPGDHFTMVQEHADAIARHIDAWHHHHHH

B1: M2(4) (module 2 of DEBS with the C-terminal linker of module 4) (protein)
chain: MSGDNGMTEEKLRRYLKRTVTELDSVTARLREVEHRAGIAIVGMACRLPGEVDSPERLWELITSGRDSAAEVPDDRGWVPDELMASDAAGTRAHGNFMAGAGDFDAAFFGISPREALAMDPQQRQALETTWEALESAGIPPETLRGSDTGVFVGMSHQGYATGRPRPEDGVDGYLLTGNTASVASGRIAYVLGLEGPALTVDTACSSSLVALHTACGSLRDGDCGLAVAGGVSVMAGPEVFTEFSRQGALSPDGRCKPFSDEADGFGLGEGSAFVVLQRLSDARREGRRVLGVVAGSAVNQDGASNGLSAPSGVAQQRVIRRAWARAGITGADVAVVEAHGTGTRLGDPVEASALLATYGKSRGSSGPVLLGSVKSNIGHAQAAAGVAGVIKVLLGLERGVVPPMLCRGERSGLIDWSSGEIELADGVREWSPAADGVRRAGVSAFGVSGTNAHVIIAEPPEPEPVPQPRRMLPATGVVPVVLSARTGAALRAQAGRLADHLAAHPGIAPADVSWTMARARQHFEERAAVLAADTAEAVHRLRAVADGAVVPGVVTGSASDGGSVFVFPGQGAQWEGMARELLPVPVFAESIAECDAVLSEVAGFSVSEVLEPRPDAPSLERVDVVQPVLFAVMVSLARLWRACGAVPSAVIGHSQGEIAAAVVAGALSLEDGMRVVARRSRAVRAVAGRGSMLSVRGGRSDVEKLLADDSWTGRLEVAAVNGPDAVVVAGDAQAAREFLEYCEGVGIRARAIPVDYASHTAHVEPVRDELVQALAGITPRRAEVPFFSTLTGDFLDGTELDAGYWYRNLRHPVEFHSAVQALTDQGYATFIEVSPHPVLASSVQETLDDAESDAAVLGTLERDAGDADRFLTALADAHTRGVAVDWEAVLGRAGLVDLPGYPFQGKRFWLLPDRTTPRDELDGWFYRVDWTEVPRSEPAALRGRWLVVVPEGHEEDGWTVEVRSALAEAGAEPEVTRGVGGLVGDCAGVVSLLALEGDGAVQTLVLVRELDAEGIDAPLWTVTFGAVDAGSPVARPDQAKLWGLGQVASLERGPRWTGLVDLPHMPDPELRGRLTAVLAGSEDQVAVRADAVRARRLSPAHVTATSEYAVPGGTILVTGGTAGLGAEVARWLAGRGAEHLALVSRRGPDTEGVGDLTAELTRLGARVSVHACDVSSREPVRELVHGLIEQGDVVRGVVHAAGLPQQVAINDMDEAAFDEVVAAKAGGAVHLDELCSDAELFLLFSSGAGVWGSARQGAYAAGNAFLDAFARHRRGRGLPATSVAWGLWAAGGMTGDEEAVSFLRERGVRAMPVPRALAALDRVLASGETAVVVTDVDWPAFAESYTAARPRPLLDRIVTTAPSERAGEPETESLRDRLAGLPRAERTAELVRLVRTSTATVLGHDDPKAVRATTPFKELGFDSLAAVRLRNLLNAATGLRLPSTLVFDHPNASAVAGFLDFAASPAVDIGDRLDELEKALEALSAEDGHDDVGQRLESLLRRWNSRRADAPSTSAISEDASDDELFSMLDQRFGGGEDL
KM, fold increase against the natural linker pair (M2 with M3+TE) [1]: the increase in KM value upon swapping in the alternate linker pair is a more modest 2-fold | kcat of tetraketide lactone 2 synthesis [1]: kcat of 0.74±0.06 min^-1 | highest rate constant of tetraketide lactone 2 formation (mismatched linkers) [2]: in the range of 0.02-0.03 min^-1
